Assay results taken from US20150274829A1.

Target: hu IGF-1R(ECD)-C3-muIgG1 Fc (human; mouse)
Experiment: ORIGEN dose response competition on IGF-1R(ECD)-C3-muFc beads; competitor 1 nM Ru-IGF-1

“murine anti-IGF-1R antibody αIR3 (Calbiochem)” was tested, and the Max (%), maximum level of inhibition at 1 µM antibody concentration was 91%.
